In the domain aggregation screens of Martell et al. (2025):

Assay: soluble fraction after stress (log2 fold change); higher = more stays soluble; pooled small domains, quantitative proteomics
Conditions: stress: 50 degC
In short: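 The measure of aggregation propensity here is the base-two logarithm of the fold change in the soluble amount of each protein after stress. A higher value means more of that protein stays in solution. Stress was applied at 50°C to pooled libraries of small protein domains, read out by high-throughput quantitative proteomics.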

Question: With “HMNMFDMRKTGARISQLRRAAGLTQAELAEKLGISYQAVSSWERGSNMPDIGKLLDLARILNTTVDALLSA” as the sequence, how does the “soluble fraction (log2)” value read?
Answer: The value was -0.375.

Question: For “HMSGLLTTSKLAQKHKMKTEPMLEKLTAAGYLEWRDDKHSLTEQGKKAGGQFKTGRFGAYFLWPEDLV”, which “soluble fraction (log2)” value is on record?
Answer: The value was -0.259.

Question: With “HMGADSFTGYTPIHKIDNPSDGINDGASYVVYFQKDGTDPTEFYKAVNANASTLAQLTSGTEYDLASSKKL” as the sequence, how does the “soluble fraction (log2)” value read?
Answer: Its value is 0.0305.

Question: For “HMLKQLGRQEGRQEGAVDALRTVLALQIEQRFGPLDPTVQALIVAADIDALQRALSRVAVVSDLGAVFPP”, which “soluble fraction (log2)” value is on record?
Answer: Its value is -0.238.

Question: With “HMQDREKNIAEGRDIIEHEFMRLGISLSRYDLDGLASKLNVKAGDDVLAGVGAGDIRVSQIISQLG” as the sequence, how does the “soluble fraction (log2)” value read?
Answer: Its value is -0.00799.

Question: For “HMKKYEIIFNDLKQSIVNGKYSNEERLPPEETLAKKYQTSRVPVQQALNALVGIGMVKRIAGSGTYVTY”, which “soluble fraction (log2)” value is on record?
Answer: Its value is -0.628.

Question: For “HMTSVRVPVKKEIWFWAIKESQRDLNEILARFPKMDKWINQEENPTFNQLEKVAKFLRVPFGYMFLDKPPK”, which “soluble fraction (log2)” value is on record?
Answer: The value was -0.931.

Question: With “HMRSIVETLTDRELEIFQLIGNGFSTGEIARRLNLSPHTIETHRKNIKDKLGLSSGSELNKQAIQWVLSS” as the sequence, how does the “soluble fraction (log2)” value read?
Answer: The value was 0.153.

Question: Which “soluble fraction (log2)” value does the source give for “HMKQESSEDLLNEVIDKVIDSNPDEKNRLLDGELKLVSFFMGQVMKETKGKANPGVINGLIKKKFNI” here?
Answer: Its value is -0.675.

Question: For “HMGGNKILTWKTDAATTRNQVPINERKEGLEISYKNEERNWVAEKYVGTSFSDDKWGVDYNWNQD”, which “soluble fraction (log2)” value is on record?
Answer: The value was 0.421.

Question: For “HMRVELVVVPELRQQLLPEARELANSAGLQLRVRGQSPADETRTIVVTQSPAAGTRVAARSIVLVE”, which “soluble fraction (log2)” value is on record?
Answer: The value was -0.539.

Question: Which “soluble fraction (log2)” value does the source give for “HMGSLKISNPVKDTLWIQGVDGLKSIEIYSSTGQLVKTILGNQGDVSSLPKGVYFLKINTPSESLTAKIIK” here?
Answer: The value was -0.0698.

Question: Which “soluble fraction (log2)” value does the source give for “HMGIAKLLTEQEYKIALLAAERRTNAMIAEEMNLTENTVKTHLKHIFDKVGIAGNAKNKRHLLADMMNSER” here?
Answer: Its value is -0.277.

Question: Which “soluble fraction (log2)” value does the source give for “HMSMFSEILRTLRKAKGLTQRELAGHLGVTQQMVAKWEKGQSTPGPDQLTRMAELLEVSTDTLLGR” here?
Answer: Its value is -0.162.

Question: For “HMEVVELTDDEKMILATLHDGPVEIGHIKQVVGLSGKKWDAATKSLRQKGLINVVLENEQKLMVK”, which “soluble fraction (log2)” value is on record?
Answer: Its value is 0.422.

Question: With “HMREKLKEYVHLLFAGTVGKEDMEQEILQNTLDRFDDWVARGFSEEDAYRKAVSGIGDIDALLG” as the sequence, how does the “soluble fraction (log2)” value read?
Answer: Its value is -0.288.

Question: For “HMDDVVVLPFTAEFARMSSDDFVREILVGKIGMKRFVVGYNHRFGSGQQGDFASLQRMQGELGFVAVRVG”, which “soluble fraction (log2)” value is on record?
Answer: Its value is 0.0571.

Question: For “HMYEVVPNMRGLTYNQATAALAAAGLKVELSDSIYDEHTQPGTVLDQSPRPNTKVKPNRVVYLTVNAF”, which “soluble fraction (log2)” value is on record?
Answer: Its value is -0.739.

Question: Which “soluble fraction (log2)” value does the source give for “HMTQGRVTGDGVNVRSQPNTDSAILTRVSTGKVVELISLKDNWYNVVVNGTKGYIRADYVSPYDG” here?
Answer: The value was -0.0101.

Question: For “HMEEIDLTPAEEILNKLPDNSRGYLIPTLNKIQNAYRFLPDPAMELLMEFFNVSRAEIFGVISFYPQLMI”, which “soluble fraction (log2)” value is on record?
Answer: The value was -0.0574.

Question: Which “soluble fraction (log2)” value does the source give for “HMIGVNMEKSTVEKFANELNLPIDLLLKQLESAGIKKTSGAEELLEADKSALLNYLQIEHGA” here?
Answer: Its value is 0.085.

Question: For “HMARLQEVVVRVPVEDGQTLAAIYREAEVIERADEGTGVLLTVRIPAPLLGRLRRLEGVHVQP”, which “soluble fraction (log2)” value is on record?
Answer: Its value is -0.125.

Question: Which “soluble fraction (log2)” value does the source give for “HMSSFRDISGTVYVKASAANLRSEPNTSSLIVDTLYYGASLQRISTNDIWTKVKTGNGQIGFMDNSLFQT” here?
Answer: Its value is -2.23.

Question: Which “soluble fraction (log2)” value does the source give for “HMDYAQAQRQAESAIALRPDVERLRLLLIYALQKQGKLREAEQAAADAIKSGLDTPALRQARANLRP” here?
Answer: The value was -0.264.

Question: Which “soluble fraction (log2)” value does the source give for “HMLDTPLTARELDVLYLMRQRMSAKEIAKQLGIATMTVNRHAANLYRKLGVNTRWDAVYRAEEVGILPP” here?
Answer: Its value is -0.992.

Question: Which “soluble fraction (log2)” value does the source give for “HMEYDYKVIDFFKDYYSYLNYQEIEPNILDKQLTTLTEEESAKIAGIMKLDYEDFTRGIEIVTGS” here?
Answer: Its value is -0.195.

Question: For “HMFPELSEEAKVIVDALSKENDQQLNVLIANTGMAVGTMQAKLFELEMQGVVKPLAGSVYHLM”, which “soluble fraction (log2)” value is on record?
Answer: Its value is -0.0727.

Question: Which “soluble fraction (log2)” value does the source give for “HMDTNAIIGLRIKNLRTEKKYTLKYLSENTGLSIGFLSQLERGMTSIAIDSLDKISKVLDVELSSFFT” here?
Answer: The value was -1.24.

Question: Which “soluble fraction (log2)” value does the source give for “HMDKSPVLQLNRDVPAGQQISADDFRTVEIGADGAFRSVPSSDLNAMVGSYAKVRLIAGTLLAREALQSG” here?
Answer: The value was 0.0412.

Question: With “HMADGEWAEMQRQLTAAGLLVVGRAAQERIQRLSDISPLIEAAQRSNVVMLSERTVDEVLTLVPT” as the sequence, how does the “soluble fraction (log2)” value read?
Answer: The value was -0.18.
